Source: the supplement of paper PMC9112550, “Optimization of the antimicrobial peptide Bac7 by deep mutational scanning” (BMC Biology, 2022)

Tested on: Escherichia coli TOP10
Experiment: shrunken log2 fold change of peptide-encoding DNA abundance (4.5 h post-induction vs induction); higher = less antimicrobial activity (less host growth inhibition)
Settings: time post-induction: 4.5 h; library: site-saturation at positions 5, 18, 19, 20
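Further: peptides expressed intracellularly from a pBAD plasmid library in pooled LB shake-flask culture, induced with 0.3% L-arabinose, DNA abundance read by NGS, three biological replicates, DESeq2 with apeglm shrinkage.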

Sequence	shrunken log2 fold change
RRIRQRPPRLPRPRPRPKRDPRP	0.114
RRIRGRPPRLPRPRPRPKDFPRP	-0.0214
RRIRFRPPRLPRPRPRPATWPRP	0.317
RRIRPRPPRLPRPRPRPDIDPRP	-0.144
RRIRCRPPRLPRPRPRPRMPPRP	0.187
RRIRWRPPRLPRPRPRPWIKPRP	-0.203
RRIRLRPPRLPRPRPRPKQVPRP	-0.0171
RRIRTRPPRLPRPRPRPYKQPRP	-0.0217
RRIRNRPPRLPRPRPRPGGKPRP	-0.101
RRIRARPPRLPRPRPRPHMNPRP	-0.245
RRIRDRPPRLPRPRPRPMTPPRP	-0.0805
RRIRSRPPRLPRPRPRPKEPPRP	-0.0411
RRIRYRPPRLPRPRPRPYFYPRP	-0.49
RRIRIRPPRLPRPRPRPFQAPRP	-0.0938
RRIRKRPPRLPRPRPRPYPCPRP	-0.034
RRIRSRPPRLPRPRPRPRMLPRP	-0.214
RRIRDRPPRLPRPRPRPLIEPRP	0.573
RRIRYRPPRLPRPRPRPLMFPRP	-1.04
RRIRGRPPRLPRPRPRPHAMPRP	0.171
RRIRYRPPRLPRPRPRPPTKPRP	0.444
RRIRYRPPRLPRPRPRPMERPRP	0.0776
RRIRMRPPRLPRPRPRPTKWPRP	0.445
RRIRWRPPRLPRPRPRPCWSPRP	-0.106
RRIRRRPPRLPRPRPRPNLRPRP	0.00766
RRIRVRPPRLPRPRPRPNITPRP	-0.808

Sequence	shrunken log2 fold change
RRIRNRPPRLPRPRPRPIQPPRP	-0.213
RRIRLRPPRLPRPRPRPSRVPRP	0.00872
RRIRCRPPRLPRPRPRPHNEPRP	-0.535
RRIRFRPPRLPRPRPRPLRCPRP	0.0723
RRIRDRPPRLPRPRPRPLAYPRP	0.0112
RRIRCRPPRLPRPRPRPSMFPRP	-0.651
RRIRVRPPRLPRPRPRPEMQPRP	0.175
RRIRRRPPRLPRPRPRPWFKPRP	-0.139
RRIRERPPRLPRPRPRPIIIPRP	-0.0562
RRIRIRPPRLPRPRPRPVTLPRP	-0.093
RRIRIRPPRLPRPRPRPWCYPRP	-0.406
RRIRTRPPRLPRPRPRPTDCPRP	0.0577
RRIRHRPPRLPRPRPRPGNVPRP	-0.36
RRIRYRPPRLPRPRPRPRAYPRP	-0.0333
RRIRSRPPRLPRPRPRPGAYPRP	-0.0377
RRIRYRPPRLPRPRPRPYPIPRP	-0.376
RRIRCRPPRLPRPRPRPATAPRP	0.41
RRIRCRPPRLPRPRPRPTRYPRP	-0.0935
RRIRERPPRLPRPRPRPFCAPRP	0.548
RRIRMRPPRLPRPRPRPQNYPRP	-0.377
RRIRERPPRLPRPRPRPWRRPRP	0.115
RRIRWRPPRLPRPRPRPREHPRP	0.822
RRIRDRPPRLPRPRPRPKACPRP	0.024
RRIRHRPPRLPRPRPRPPEGPRP	0.168
RRIRWRPPRLPRPRPRPWMRPRP	0.526

Sequence	shrunken log2 fold change
RRIRFRPPRLPRPRPRPGFFPRP	0.023
RRIRLRPPRLPRPRPRPVPSPRP	0.157
RRIRDRPPRLPRPRPRPHNFPRP	0.0112
RRIRQRPPRLPRPRPRPVCDPRP	0.0934
RRIRDRPPRLPRPRPRPHVDPRP	0.07
RRIRFRPPRLPRPRPRPLHFPRP	0.0202
RRIRWRPPRLPRPRPRPWTHPRP	-0.11
RRIRLRPPRLPRPRPRPQTQPRP	0.0159
RRIRQRPPRLPRPRPRPTKHPRP	-0.167
RRIRYRPPRLPRPRPRPFKLPRP	-0.0907
RRIRLRPPRLPRPRPRPVTCPRP	-0.125
RRIRTRPPRLPRPRPRPHEAPRP	-0.0062
RRIRNRPPRLPRPRPRPLRTPRP	0.717
RRIRWRPPRLPRPRPRPAPSPRP	0.393
RRIRNRPPRLPRPRPRPKNWPRP	0.168
RRIRWRPPRLPRPRPRPFQCPRP	-0.0406
RRIRPRPPRLPRPRPRPWWTPRP	-0.311
RRIRFRPPRLPRPRPRPVYQPRP	-0.0402
RRIRMRPPRLPRPRPRPMLNPRP	-0.0171
RRIRARPPRLPRPRPRPHTIPRP	-0.734
RRIRLRPPRLPRPRPRPRQHPRP	-0.0111
RRIRGRPPRLPRPRPRPGTQPRP	0.143
RRIRNRPPRLPRPRPRPAQQPRP	0.017
RRIRVRPPRLPRPRPRPCLYPRP	-0.0189
RRIRERPPRLPRPRPRPLFCPRP	-0.211

Sequence	shrunken log2 fold change
RRIRIRPPRLPRPRPRPYQFPRP	-0.141
RRIRARPPRLPRPRPRPMAMPRP	0.282
RRIRNRPPRLPRPRPRPRTLPRP	-0.0666
RRIRKRPPRLPRPRPRPQMTPRP	0.0443
RRIRSRPPRLPRPRPRPKVKPRP	0.0666
RRIRKRPPRLPRPRPRPKNQPRP	0.419
RRIRCRPPRLPRPRPRPTKVPRP	-0.413
RRIRSRPPRLPRPRPRPGMSPRP	-0.0403
RRIRYRPPRLPRPRPRPTASPRP	-0.389
RRIRFRPPRLPRPRPRPHNPPRP	-0.288
RRIRLRPPRLPRPRPRPCGPPRP	-0.107
RRIRGRPPRLPRPRPRPSKSPRP	-0.0596
RRIRSRPPRLPRPRPRPVQEPRP	0.403
RRIRSRPPRLPRPRPRPNPRPRP	0.0955
RRIRARPPRLPRPRPRPFALPRP	0.185
RRIRVRPPRLPRPRPRPMHTPRP	0.0814
RRIRQRPPRLPRPRPRPDFWPRP	0.0103
RRIRRRPPRLPRPRPRPKDTPRP	0.0485
RRIRRRPPRLPRPRPRPKFPPRP	0.361
RRIRRRPPRLPRPRPRPNRCPRP	0.118
RRIRRRPPRLPRPRPRPYVIPRP	0.0475
RRIRKRPPRLPRPRPRPPKFPRP	0.514
RRIRSRPPRLPRPRPRPNHNPRP	-0.784
RRIRARPPRLPRPRPRPYFKPRP	-0.551
RRIRHRPPRLPRPRPRPTAFPRP	-0.00502

Sequence	shrunken log2 fold change
RRIRPRPPRLPRPRPRPEHQPRP	-0.0202
RRIRSRPPRLPRPRPRPFLKPRP	-0.632
RRIRKRPPRLPRPRPRPWYKPRP	-0.0194
RRIRRRPPRLPRPRPRPEHGPRP	0.0177
RRIRQRPPRLPRPRPRPSKTPRP	-0.0854
RRIRARPPRLPRPRPRPMVDPRP	0.299
RRIRERPPRLPRPRPRPMHPPRP	0.464
RRIRDRPPRLPRPRPRPNWTPRP	0.0279
RRIRKRPPRLPRPRPRPVDFPRP	0.103
RRIRCRPPRLPRPRPRPILCPRP	2.87
RRIRQRPPRLPRPRPRPILQPRP	0.292
RRIRDRPPRLPRPRPRPFVFPRP	0.175
RRIRQRPPRLPRPRPRPGQYPRP	-0.156
RRIRFRPPRLPRPRPRPRNPPRP	0.118
RRIRMRPPRLPRPRPRPSAGPRP	0.655
RRIRIRPPRLPRPRPRPEEYPRP	-0.0228
RRIRARPPRLPRPRPRPFVLPRP	-0.181
RRIRGRPPRLPRPRPRPEKDPRP	1.27
RRIRNRPPRLPRPRPRPEMVPRP	-0.0225
RRIRMRPPRLPRPRPRPKDPPRP	0.438
RRIRWRPPRLPRPRPRPHNWPRP	0.0898
RRIRTRPPRLPRPRPRPDEPPRP	-0.105
RRIRMRPPRLPRPRPRPRSHPRP	0.407
RRIRMRPPRLPRPRPRPSHTPRP	0.0597
RRIRLRPPRLPRPRPRPCESPRP	0.0102

Sequence	shrunken log2 fold change
RRIRFRPPRLPRPRPRPVILPRP	-1
RRIRHRPPRLPRPRPRPAYDPRP	-0.265
RRIRGRPPRLPRPRPRPASKPRP	0.453
RRIRSRPPRLPRPRPRPSCSPRP	-0.231
RRIRLRPPRLPRPRPRPINCPRP	-0.0463
RRIRHRPPRLPRPRPRPGCSPRP	-0.08
RRIRSRPPRLPRPRPRPCEAPRP	0.389
RRIRLRPPRLPRPRPRPMDCPRP	-0.0117
RRIRIRPPRLPRPRPRPHEQPRP	-0.288
RRIRYRPPRLPRPRPRPHIRPRP	-0.206
RRIRRRPPRLPRPRPRPYQEPRP	-0.259
RRIRPRPPRLPRPRPRPFQIPRP	-0.169
RRIRYRPPRLPRPRPRPKFCPRP	-0.291
RRIRERPPRLPRPRPRPVYYPRP	0.0224
RRIRERPPRLPRPRPRPRNKPRP	-0.121
RRIRARPPRLPRPRPRPGHYPRP	0.186
RRIRYRPPRLPRPRPRPFALPRP	-0.133
RRIRNRPPRLPRPRPRPDVYPRP	-0.0277
RRIRPRPPRLPRPRPRPAMIPRP	-0.26
RRIRCRPPRLPRPRPRPAGIPRP	-0.0496
RRIRCRPPRLPRPRPRPMNKPRP	-0.32
RRIRSRPPRLPRPRPRPWTTPRP	0.00749
RRIRHRPPRLPRPRPRPKKAPRP	0.0601
RRIRIRPPRLPRPRPRPDQVPRP	-0.117
RRIRTRPPRLPRPRPRPFAKPRP	-0.0867
